Several values for one entry are separate records, joined by “and”; a condition that tells them apart may be missing. Equal values may be shown once. Entries after “also recorded” stand apart in the source; their conditions may differ.
Tests used:
[1] = Products of enzyme reactions with purified enzymes, identified by TLC and/or HPLC; assay type: biochemical
[2] = Optimal pH, PMS-DCIP assay in buffers of various pH; assay type: biochemical
How it was run: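 Activity measured by PMS-DCIP spectrophotometric assay in 50 mM Tris-malate-NaOH (pH 6.0–8.5) or 50 mM glycine-NaOH (pH 9.0, 9.5). DCIP extinction coefficients taken as 10.8 to 15.1 depending on pH.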

[3] = Thermal stability, 5 minutes, residual activity by PMS-DCIP assay; assay type: physicochemical
Protocol: Table 4 indicates the results of thermal-stabilities of the enzymes. The enzyme (about 0.05 mg/ml) in 25 mM HEPES buffer, pH 7.5, containing 5% sucrose, 0.2 M NaCl, and 5 mM CaCl2 was incubated at temperature indicated in the table (4-60° C.) for 5 minutes, cooled in ice bath and assayed by PMS-DCIP spectrophotometric method. Remaining activity was expressed as relative activity against that obtained by 4° C. incubation.

[4] = Oxidation product of AADH clones by resting cell reaction followed by TLC analysis; assay type: cell-based, P. putida
How it was run: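 Pseudomonas putida ATCC 21812 (nalidixic acid resistant) carrying pSSA102R with the Enzyme A gene cassette, selected on agar with 50 μg/ml nalidixic acid and 10 μg/ml tetracycline, was used in a mini resting cell reaction. Product was identified by TLC, with the untransformed host as control.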

[5] = Substrate specificity of purified enzymes, PMS-DCIP spectrophotometric assay; assay type: biochemical; conditions: A′ corrected 1.5-fold (purity about 65%)
How it was run: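 Cell-free extract, cytosolic (100,000×g supernatant) and membrane fractions from French-press-disrupted cultures assayed in 1.0 ml containing 100 μM DCIP, 1 mM PMS, 50 mM Tris-malate-NaOH pH 8.0 and substrate. Substrate-dependent decrease in DCIP absorbance at 600 nm followed at 25 °C; one unit reduces 1 μmole DCIP/min (ε 15 mM⁻¹).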

B1: Enzyme B: recombinant AADH of G. oxydans DSM No. 4025, amino acid sequence SEQ ID NO 8, plasmid pSS31/pSSB103R (protein)
chain: MNPTTLLRTSAAVLLLTAPAAFAQVTPITDELLANPPAGEWINYGRNQENYRHSPLTQITADNVGQLQLVWARGMEAGAVQVTPMIHDGVMYLANPGDVIQALDAQTGDLIWEHRRQLPAVATLNAQGDRKRGVALYGTSLYFSSWDNHLIALDMETGQVVFDVERGSGEDGLTSNTTGPIVANGVIVAGSTCQYSPYGCFISGHDSATGEELWRNHFIPQPGEEGDETWGNDFEARWMTGVWGQITYDPVTNLVFYGSTGVGPASETQRGTPGGTLYGTNTRFAVRPDTGEIVWRHQTLPRDNWDQECTFEMMVANVDVQPSAEMEGLRAINPNAATGERRVLTGAPCKTGTMWSFDAASGEFLWARDTNYTNMIASIDETGLVTVNEDAVLKELDVEYDVCPTFLGGRDWSSAALNPDTGIYFLPLNNACYDIMAVDQEFSALDVYNTSATAKLAPGFENMGRIDAIDISTGRTLWSAERPAANYSPVLSTAGGVVFNGGTDRYFRALSQETGETLWQARLATVATGQAISYELDGVQYIAIGAGGLTYGTQLNAPLAEAIDSTSVGNAIYVFALPQ
modifications: Gluconobacter oxydans; SIGNAL (1)..(23)
For B1, the Product ([1]; substrate D-Gluconic acid) was 5-keto-D-gluconic acid and 5-Keto-D-gluconic acid, the Product ([1]; substrate D-Glucose) was “D-gluconate; also recorded: D-Gluconic acid” and the Product ([1]; substrate D-Mannitol) was “D-Fructose”. The Product ([1]; substrate D-Mannoic acid) was 5-keto-D-mannoic acid and 5-Keto-D-mannoic acid, the Product ([1]; substrate D-Sorbitol) was “L-Sorbose” and the Product ([1]; substrate Glycerol) was “Dihydroxyacetone”. For the same molecule, the Product ([1]; substrate L-Idose) was “L-Idonic acid”, the Product ([1]; substrate L-Sorbosone) was 2KGA and the “Relative activity (optimal pH)” value ([2]; assay pH 6.0, pH 8.0 = 100) was 21.0%. The “Relative activity (optimal pH)” value ([2]; assay pH 6.5, pH 8.0 = 100) was 51.6%, the “Relative activity (optimal pH)” value ([2]; assay pH 7.0, pH 8.0 = 100) was 61.6% and the “Relative activity (optimal pH)” value ([2]; assay pH 7.5, pH 8.0 = 100) was 75.3%. The “Relative activity (optimal pH)” value ([2]; assay pH 8.0) was 100.0%, the “Relative activity (optimal pH)” value ([2]; assay pH 8.5, pH 8.0 = 100) was 62.2% and the “Relative activity (optimal pH)” value ([2]; assay pH 9.0, pH 8.0 = 100) was 8.0%. For the same molecule, the “Relative activity (optimal pH)” value ([2]; assay pH 9.5, pH 8.0 = 100) was 0.0%, the “Relative activity (thermal stability)” value ([3]; 4° C. for 5 minutes (reference)) was 100.0% and the “Relative activity (thermal stability)” value ([3]; 20° C. for 5 minutes, relative to 4° C. incubation) was 97.2%. For the same molecule, the “Relative activity (thermal stability)” value ([3]; 30° C. for 5 minutes, relative to 4° C. incubation) was 95.4%, the “Relative activity (thermal stability)” value ([3]; 40° C. for 5 minutes, relative to 4° C. incubation) was 84.6% and the “Relative activity (thermal stability)” value ([3]; 50° C. for 5 minutes, relative to 4° C. incubation) was 29.2%. The “Relative activity (thermal stability)” value ([3]; 60° C. for 5 minutes, relative to 4° C. incubation) was 0.0%, the “Oxidation product of D-glucose” value [4] was “*2Oxidation product of D-glucose by Enzyme B, and Enzyems [A and B] was D-gluconic acid” and the “Oxidation product of D-sorbitol” value [4] was “L-sorbose”. For the same molecule, the “Oxidation product of L-sorbosone” value [4] was “*4Oxidation product of L-sorbosone by Enzymes A, A′, A″, B, and [A and B] was 2KGA”, the Substrate specificity ([5]; 2 mM L-Sorbosone) was 73.6 units/mg of purified protein and the Substrate specificity ([5]; 50 mM D-Glucose) was 943.9 units/mg of purified protein. The Substrate specificity ([5]; 50 mM D-Mannitol) was 517.4 units/mg of purified protein, the Substrate specificity ([5]; 50 mM Isopropanol) was 72.3 units/mg of purified protein and the Substrate specificity ([5]; 50 mM n-Propanol) was 40.0 units/mg of purified protein. For the same molecule, the Substrate specificity ([5]; 125 mM D-Fructose) was 2.1 units/mg of purified protein, the Substrate specificity ([5]; 125 mM D-Sorbitol) was 130.9 units/mg of purified protein and the Substrate specificity ([5]; 125 mM L-Sorbose) was 8.4 units/mg of purified protein.
